Source: patent US8008256B2, “Combination therapy for treatment of cancer” (priority 2006, dated 2011)

B1: native CN (protein)
chain: DAPANPCCDAATCKLTTGSQCADGLCCDQCKFMKEGTVCRRARGDDLDDYCNGISAGCPRNPFH

Experiments:
[1] = target: T1, GPIIb/IIIa (integrin αIIbβ3) (Homo sapiens, UniProt P05106+P08514); assay: platelet aggregation inhibition assay (ADP induced, platelet-rich plasma); type: cell-based
T1 construct: endogenous in cells
Procedure: The recombinant CN products were evaluated for biological activity by a platelet aggregation inhibition assay. According to this assay, CN binding to GPIIb/IIIa (integrin αIIbβ3) in an RGD dependent manner inhibits ADP induced platelet aggregation (Trikha, Rote, et al. 1994). In this assay, potential inhibitors are added to fresh platelet-rich plasma, and after minute, ADP is added to a final concentration of 1 μM to induce aggregation. If inhibitor is present, functional aggregation will not occur. The IC50 is defined as the concentration at which 50% of the activity is inhibited, and is used as a measure of the potency of an inhibitor.

[2] = system: MDA-MB-435 breast carcinoma cells; assay: inhibition of MDA-MB-435 cell adhesion to immobilized fibronectin (Fn); type: cell-based, human; details: pretreatment 30 min, 0-1000 nM; adhesion 1 hr at 25° C.; MTS
Procedure: (§1) Pretreated cells were allowed to adhere for 1 hr at 25° C., and after non-adherent cells were washed away, the number of adherent cells for each condition was estimated using the MTS cell viability assay. In the cell invasion assay, an invasion chamber consisting of cell culture inserts that fit into 24-well tissue culture plate has been utilized. The inserts contain an 8 μm-pore size polycarbonate membrane, over which a thin layer of ECMatrix™ was applied. The ECMatrix™ serves as an in vitro reconstituted basement membrane and is a solid gel of ECM proteins prepared from the Engelbreth Holm-Swarm (EHS) mouse tumor. The ECM layer occludes the membranes pores, blocking non-invasive cells to migrate through. The cells were incubated in the presence of various concentrations (10, 100, 1000 nM) of either native CN or Vicrostatin for 30 min at 25° C. and then allowed to migrate in the Boyden chamber for 8 hrs. At the 8 hr time point the cells that invaded through the pores into the lower chamber were measured. The numbers of invaded cells for each condition were approximated by quantitating the retrieved labeled DNA using a fluorescent plate reader. The results were calculated in % invasion, where the untreated control was considered as 100% invasion.

[3] = system: MDA-MB-435 breast carcinoma cells; assay: inhibition of MDA-MB-435 cell adhesion to immobilized vitronectin (Vn); type: cell-based, human; details: pretreatment 30 min, 0-1000 nM; adhesion 1 hr at 25° C.; MTS
Procedure: as §1

MDA-MB-435 cells = assay: MDA-MB-435 cell invasion through Matrigel/ECMatrix in modified Boyden chamber; type: cell-based, human; details: 10, 100, 1000 nM; 8 hrs in Boyden chamber
Procedure: as §1

PC-3 tumors = assay: PC-3 xenograft tumor growth; type: in vivo, athymic male nude mice (Balb/c/nu/nu mice); details: for mean tumor volume after four weeks: docetaxel i.p. 6 then 4 mg/kg twice a week, CN 60 μg/day osmotic mini-pump, control 378±49; for suppression of growth of PC-3 tumors: four weeks treatment
Procedure: 100 μl of PC-3 cell suspension (1×10^6 cells) (ATCC.org, Manassas, Va.) was mixed with an equal volume, 100 μl of Matrigel basement membrane matrix (BD Biosciences, Bedford, Mass.) and injected subcutaneously into the flank region of athymic male nude mice (Balb/c/nu/nu mice) (Charles River Laboratory, Wilmington, Mass.). Four weeks after inoculation, 32 mice with PC-3 tumors were randomized into four groups with 8 mice in each group. The control group was treated with PBS and released from Alzet osmotic mini-pumps for four weeks. The second group was treated with docetaxel injections intraperitoneally at a dose of 6 mg/kg twice a week for two weeks and then switched to 4 mg/kg twice a week for two weeks. The third group was treated with contortrostatin (CN) at a dose of 60 μg/day which was continually released from subcutaneously implanted Alzet osmotic mini-pumps for four weeks. The fourth group was treated with a combination of docetaxel and CN at doses indicated in groups 2 and 3 for four weeks. Tumor volume was measured one a week and are calculated according to the formula: length×width^2×0.52.

[4] = liposome encapsulation efficiency (BCA protein assay); type: physicochemical
Procedure: Endotoxin-free VN containing liposomes (referred to as LVN) and endotoxin-free native CN containing liposomes (referred to as LCN) were prepared utilizing a probe sonication previously described (Fujii, Chang et al. 1997). Briefly, the lipids (disteroylphosphatidylcholine, cholesterol and polyethylene glycol derivatized lipid) were dissolved in a chloroform/methanol solution. Thin lipid films were created by pipetting aliquots of the lipid solution into round bottom glass tubes followed by solvent evaporation at 65° C. under a stream of nitrogen gas. The films were placed under vacuum for at least 24 hours to remove residual organic solvent. Liposomes formed following hydration of the lipid films with native CN or VN dissolved in 10 mM sodium phosphate, 9% sucrose, pH 7.2. The mixture was incubated at 65° C. for 5-10 minutes. Hydration was followed by probe sonication until the suspension was translucent. […]
The concentration of liposome entrapped CN/VN was determined by disruption of the liposomes with chloroform/methanol/water (10:40:50) followed by centrifugation at 14,000×g. The supernatant was analyzed for CN/VN concentration using BCA protein assay (Smith et al., Anal. Biochem. 150(1): 76-85 (1985)). The encapsulation efficiency was assessed by BCA protein determination following disruption of the LrCN with a solution of H2O methanol: chloroform.

Molecule | inhibition of platelet aggregation ([1]; even at low μM concentrations) | inhibition of adhesion of MDA-MB-435 cells to immobilized fibronectin (Fn) [2] | inhibition of adhesion of MDA-MB-435 cells to immobilized vitronectin (Vn) [3] | inhibition of MDA-MB-435 cell invasion (MDA-MB-435 cells) | mean tumor volume after four weeks (PC-3 tumors) [mm^3] | suppression of growth of PC-3 tumors (PC-3 tumors) | IC50 in the platelet inhibition assay ([1]; ADP 1 μM induced aggregation) | protein in the encapsulation solution entrapped within the liposomes [4] [%]
rCN: recombinant CN disintegrin domain without the HKGPAT sequence | did not inhibit platelet aggregation | inactive in the nanomolar range | inactive in the nanomolar range | inactive in the nanomolar range |  |  |  | 
CC(=O)O[C@@]12CO[C@@H]1C[C@H](O)[C@@]1(C)C(=O)[C@H](O)C3=C(C)[C@@H](OC(=O)[C@H](O)[C@@H](NC(=O)OC(C)(C)C)c4ccccc4)C[C@@](O)([C@@H](OC(=O)c4ccccc4)[C@H]21)C3(C)C [docetaxel, reference compound] |  |  |  |  | 259±38 | significantly suppressed |  | 
B1 |  | inhibited adhesion | inhibited adhesion |  | 195±40 | significantly suppressed | almost identical | 80
